Results from publication PMC7335050, “Characterization of an alternative BAK-binding site for BH3 peptides” (Nature Communications, 2020).

Molecular target: T1, BAKΔTM (human, UniProt Q16611 1-186)
T1 construct: BAK without the transmembrane segment, human, residues 1-186 of GenBank BC004431, in pET29b(+); Named His6-BAKΔTM in the liposome and cytochrome c assays; no tag removal is described; also called His6-BAKΔTM; WT BAKΔTM; source: E. coli BL21, purified (Ni2+-NTA-agarose, Superdex S200)
T1 sequence (looked up): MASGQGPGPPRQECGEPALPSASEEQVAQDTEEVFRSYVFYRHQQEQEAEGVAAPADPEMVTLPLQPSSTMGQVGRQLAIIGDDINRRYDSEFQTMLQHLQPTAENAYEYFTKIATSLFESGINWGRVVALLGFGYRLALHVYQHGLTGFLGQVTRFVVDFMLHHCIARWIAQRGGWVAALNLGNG
Experiment: SPR; BAKΔTM or mutants immobilised on a CM5 chip (Biacore T200; about 4000 RU in the mutant comparisons), BH3 peptides injected at 30 µl per min for 1 min, 25 °C, 10 mM HEPES pH 7.4, 150 mM NaCl, 0.05 mM EDTA, 0.005% polysorbate 20; steady-state analysis, approximate constants
Settings: both partners purified

HQAEVQIARKLQCIADQFHRLHVQQH [BMF BH3 peptide]
Kd: < 1000 nM
